According to publication PMC7956486, “Conversion of Racemic Unnatural Amino Acids to Optically Pure Forms by a Coupled Enzymatic Reaction” (Molecules, 2021):

B1: RgDAAO (Rhodotorula toruloides) (protein)
chain: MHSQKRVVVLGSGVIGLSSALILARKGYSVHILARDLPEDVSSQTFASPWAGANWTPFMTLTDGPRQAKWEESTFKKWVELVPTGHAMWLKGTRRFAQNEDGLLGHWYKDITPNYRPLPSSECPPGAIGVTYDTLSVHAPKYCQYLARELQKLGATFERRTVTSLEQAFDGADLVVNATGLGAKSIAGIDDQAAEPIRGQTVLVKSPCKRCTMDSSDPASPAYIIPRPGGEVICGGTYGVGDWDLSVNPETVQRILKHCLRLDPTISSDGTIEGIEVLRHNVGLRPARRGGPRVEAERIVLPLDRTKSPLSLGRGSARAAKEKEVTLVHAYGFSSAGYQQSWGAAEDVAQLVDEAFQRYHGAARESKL
notes: synthetic gene, N-terminal His6 tag, expressed in E. coli, Ni-NTA purified

Tests used:
TtAT = target: T1, TtAT (Thermus thermophilus, UniProt Q75WK2); assay: PLP to PMP conversion, absorbance decrease at […] nm; assay type: biochemical; conditions: 50 mM HEPES-NaOH pH 8.0, 0.1 M KCl, 25 °C, 20 μM enzyme, no amine acceptor; racemate used as amine donor
T1 construct: gene TthHB5018_10190; C-terminal His6 tag, amplified from genomic DNA, plasmid pET20b-ttGlnAT, expressed in E. coli BL21(DE3), Ni-NTA purified

purified protein [1] = substrate: NC(Cc1cnc2c(O)cccc2c1)C(=O)O; assay: purified protein; assay type: biochemical, Rhodotorula toruloides; conditions: 75 mM phosphate pH 8.5, 1 mM o-dianisidine, 1 U HRP, 25 °C, 119 nM enzyme, racemate used, value calibrated accordingly
purified protein [2] = substrate: NC(Cc1ccc(-c2ccccn2)nc1)C(=O)O; assay: purified protein; assay type: biochemical, Rhodotorula toruloides; conditions: 75 mM phosphate pH 8.5, 1 mM o-dianisidine, 1 U HRP, 25 °C, 119 nM enzyme, racemate used, value calibrated accordingly
purified protein [3] = substrate: N[C@H](Cc1ccc2ccccc2c1)C(=O)O; assay: purified protein; conditions: 75 mM phosphate pH 8.5, 1 mM o-dianisidine, 1 U HRP, 25 °C, 11.9 nM enzyme

T1 sequence (Q75WK2 entry or part of it): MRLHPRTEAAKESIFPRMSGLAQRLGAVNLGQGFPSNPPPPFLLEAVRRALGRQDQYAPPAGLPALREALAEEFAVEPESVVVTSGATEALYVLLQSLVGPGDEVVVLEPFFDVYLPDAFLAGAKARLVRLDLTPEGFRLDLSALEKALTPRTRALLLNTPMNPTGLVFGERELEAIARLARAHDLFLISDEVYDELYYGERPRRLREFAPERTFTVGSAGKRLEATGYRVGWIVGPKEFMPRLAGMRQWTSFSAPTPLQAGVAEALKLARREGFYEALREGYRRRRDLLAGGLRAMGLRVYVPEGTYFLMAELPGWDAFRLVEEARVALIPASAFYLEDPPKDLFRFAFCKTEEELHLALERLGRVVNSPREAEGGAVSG

| Molecule | PLP to PMP conversion, absorbance decrease at 430 nm (TtAT) | Km (purified protein [1]) | kcat (purified protein [1]) | kcat/Km (purified protein [1]) | Km (purified protein [2]) | kcat (purified protein [2]) | kcat/Km (purified protein [2]) | Km (purified protein [3]) | kcat (purified protein [3]) | kcat/Km (purified protein [3]) |
| --- | --- | --- | --- | --- | --- | --- | --- | --- | --- | --- |
| NC(Cc1cnc2c(O)cccc2c1)C(=O)O (racemic) [HQA, L-HQA] | This result indicates that TtAT recognizes BPA and HQA as substrates | – | – | – | – | – | – | – | – | – |
| NC(Cc1ccc(-c2ccccn2)nc1)C(=O)O (racemic) [BPA, L-BPA] | This result indicates that TtAT recognizes BPA and HQA as substrates | – | – | – | – | – | – | – | – | – |
| B1 | – | 43 ± 9.4 µM | 2.067 ± 0.00667 s⁻¹ | 48300 M⁻¹ s⁻¹ | 87 ± 10 µM | 7.47 ± 0.333 s⁻¹ | 86700 M⁻¹ s⁻¹ | 52 ± 8.7 µM | 28.5 s⁻¹ | 550000 M⁻¹ s⁻¹ |
